Measured values from patent US20220119492A1 (MEDIKINE, published 2022).
Bridge positions count the residues as written; N and C are the ends. Ends that are not written are not given here.

T1: human IL-2Rβ (CD122 protein, Fc Tag) (27-239) (human, UniProt P14784 27-239)
T1 construct: range 27-239; Bought protein; also called hu-IL-2Rβ subunit; IL-2Rβ subunit; not shown: Fc tag of the bought protein
T1 sequence (looked up): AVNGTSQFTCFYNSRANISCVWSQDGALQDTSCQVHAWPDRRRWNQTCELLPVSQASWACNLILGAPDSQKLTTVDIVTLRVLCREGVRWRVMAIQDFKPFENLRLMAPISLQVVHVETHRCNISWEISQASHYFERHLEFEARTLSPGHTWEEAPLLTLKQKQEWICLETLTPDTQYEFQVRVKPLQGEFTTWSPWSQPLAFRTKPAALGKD

B1: SEQ ID NO 2720 (peptide)
peptide: WYPCSIASLGELCDLE
B2: SEQ ID NO 2764 (peptide)
peptide: QTWYLPCWMAKLGELCDLGERD
B3: SEQ ID NO 2744 (peptide)
peptide: VASERFYPCWIARLGELCDVE
B4: SEQ ID NO 2749 (peptide)
peptide: WTPCWIAQLGELCDLEGRHGTV
B5: SEQ ID NO 2751 (peptide)
peptide: FYPCWAAHLGDLCDLEYQEAGP
B6: SEQ ID NO 2771 (peptide)
peptide: TGEWWPCWVAEVGELCDLERGP
B7: SEQ ID NO 2756 (peptide)
peptide: TEMWYPCWMAYQGELCDLDMTY
B8: SEQ ID NO 2765 (peptide)
peptide: EPRWYPCWMAQMGELCDMEMSD
modifications: disulfide 7-16 (inferred)
B9: SEQ ID NO 2717 (peptide)
peptide: RYPCWIAQLGELCDLD
B10: SEQ ID NO 2770 (peptide)
peptide: WYPCWIAQVGELCDLDEVSHGR
B11: SEQ ID NO 2747 (peptide)
peptide: WYPCWRAQLGELCDLVDLGSHL
B12: SEQ ID NO 2708 (peptide)
peptide: TESWYPCWLANLGDLCDLEWSA
modifications: disulfide 7-16 (inferred)
B13: SEQ ID NO 2769 (peptide)
peptide: WRILWMQQCWRSHVVNQCAL
B14: SEQ ID NO 2728 (peptide)
peptide: RYPCWRAKLGELCDLD
B15: SEQ ID NO 2712 (peptide)
peptide: KNGPKSWYPCWMAQVGDLCDLD
B16: SEQ ID NO 2752 (peptide)
peptide: WLPCWLAPLGDLCDMDMSAVMN
B17: SEQ ID NO 2748 (peptide)
peptide: WSPCWMASLGDLCDLEETRQTE
modifications: disulfide 4-13 (inferred)
B18: SEQ ID NO 2740 (peptide)
peptide: ARGEYRWFPCWMARLGELCDLE
B19: SEQ ID NO 2710 (peptide)
peptide: WHPCWMARLGELCDLD
B20: SEQ ID NO 2760 (peptide)
peptide: AWDWYPCSVAALGEICDLDIQD
B21: SEQ ID NO 2726 (peptide)
peptide: WYPCWLAQLGELCDAE
B22: SEQ ID NO 2730 (peptide)
peptide: LGSKRQWYPCWVAHLGELCDLE
B23: SEQ ID NO 2754 (peptide)
peptide: WYPCWLAQLGEVCDLDDGGGVF
B24: SEQ ID NO 2735 (peptide)
peptide: DMFTHRWYPCSMAKLGELCDLE
B25: SEQ ID NO 2729 (peptide)
peptide: EEQSRGFLPCWMALLGELCDLD
B26: SEQ ID NO 2715 (peptide)
peptide: WLPCWRAQLGQLCDLD
B27: SEQ ID NO 2714 (peptide)
peptide: WYPCWMARMGELCDLE
B28: SEQ ID NO 2741 (peptide)
peptide: YLERSRWYPCFIAQLGELCDLE
B29: SEQ ID NO 2746 (peptide)
peptide: WYPCWLAHLGELCDLDWKGRND
B30: SEQ ID NO 2711 (peptide)
peptide: QGTKWHWNPCWMAQLGELCDLD
modifications: disulfide 10-19 (inferred)
B31: SEQ ID NO 2722 (peptide)
peptide: WHPCWMAQVGEVCDLD
B32: SEQ ID NO 2768 (peptide)
peptide: RLVYDCLFAQVGDLCEVIS
B33: SEQ ID NO 2727 (peptide)
peptide: WKPCWMALLGELCDLE
B34: SEQ ID NO 2737 (peptide)
peptide: NVTYTQWFPCWLARLGELCDLV
modifications: disulfide 10-19 (inferred)
B35: SEQ ID NO 2731 (peptide)
peptide: ESEGRGWYPCWNALLGELCDLE
B36: SEQ ID NO 2759 (peptide)
peptide: VDEFYPCSMAGLGELCDLERQN
B37: SEQ ID NO 2767 (peptide)
peptide: WWPCWIAQVGELCDLDGPGRPT
B38: SEQ ID NO 2719 (peptide)
peptide: MYPCWIAHLGELCDLD
B39: SEQ ID NO 2723 (peptide)
peptide: WYPCWLASLGEVCDLE
B40: SEQ ID NO 2724 (peptide)
peptide: WWPCSIARLGQLCDLD
B41: SEQ ID NO 2766 (peptide)
peptide: WGGRYWCWMAKLGDLCDLEDEW
B42: SEQ ID NO 2736 (peptide)
peptide: MTDRAFWNPCWVARLGELCDLD
B43: SEQ ID NO 2739 (peptide)
peptide: AMARRYLPCWIAKLGELCELD
B44: SEQ ID NO 2704 (peptide)
peptide: YAEWYPCWMARVGEVCDLEVTP
B45: SEQ ID NO 2743 (peptide)
peptide: IERAWEWRPCWLASVGELCDLE
modifications: disulfide 10-19 (inferred)
B46: SEQ ID NO 2742 (peptide)
peptide: FRVSRDWFPCWMAQLGEVCDLE
B47: SEQ ID NO 2750 (peptide)
peptide: LPCWIAQLGDLCDLEPEPSPE
B48: SEQ ID NO 2709 (peptide)
peptide: WLPCWMADVGDLCDLD
modifications: disulfide 4-13 (inferred)
B49: SEQ ID NO 2705 (peptide)
peptide: RSGDKAFFPCWLAQLGDLCDLD
B50: SEQ ID NO 2707 (peptide)
peptide: RVSYPCWLARLGELCDMDLEE
B51: SEQ ID NO 2755 (peptide)
peptide: WWPCWLAQLGELCDLEVNGSLI
B52: SEQ ID NO 2753 (peptide)
peptide: WRPCWMAHLGDLCDLEMANENP
B53: SEQ ID NO 2721 (peptide)
peptide: WLPCYMAQLGDLCDLE
B54: SEQ ID NO 2761 (peptide)
peptide: RPPWYPCWMARLGEVCDMDIML
B55: SEQ ID NO 2713 (peptide)
peptide: SGTGPAWYPCFLASLGQLCDLE
B56: SEQ ID NO 2733 (peptide)
peptide: LHAGRWNPCWLAQLGELCDLE
B57: SEQ ID NO 2757 (peptide)
peptide: ARTWWPCWRAKLGELCDLVVPE
B58: SEQ ID NO 2706 (peptide)
peptide: WYPCWMAQLGELCDMD
B59: SEQ ID NO 2758 (peptide)
peptide: HQGFYSCRLARLGELCDLDTGW
B60: SEQ ID NO 2716 (peptide)
peptide: LFPCWLAQLGELCDLE
B61: SEQ ID NO 2734 (peptide)
peptide: LSSKGWYPCWKARLGDLCDLE
modifications: disulfide 9-18 (inferred)
B62: SEQ ID NO 2762 (peptide)
peptide: SQRWYPCWVAHLGELCDLEGVV
B63: SEQ ID NO 2763 (peptide)
peptide: KGSWQPCWFAKLGELCDLHPTS
B64: SEQ ID NO 2732 (peptide)
peptide: RWTQAQWYPCWLAQLGELCDLE

Each binder was assayed against T1, human IL-2Rβ (CD122 protein, Fc Tag) … (assay: phage ELISA competition).
Outline: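 In this competitive binding ELISA, test ligands compete with a phage tracer for human IL-2Rβ-Fc, and IC50 is calculated from the absorbance signal over the ligand dilution series. A 50 μL volume of phage tracer was added without washing and left for 45 min at 4° C. TMB was used to detect bound phage for 1 to 15 min at 25° C, after which stop solution was added and absorbance was read at 450 nm.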

Binder	IC50 [µM]
B1	< 100
B2	< 100
B3	< 100
B4	< 100
B5	< 100
B6	< 100
B7	< 100
B8	< 100
B9	< 100
B10	< 100
B11	< 100
B12	< 100
B13	< 100
B14	< 100
B15	< 100
B16	< 100
B17	< 100
B18	< 100
B19	< 100
B20	< 100
B21	< 100
B22	< 100

Binder	IC50 [µM]
B23	< 100
B24	< 100
B25	< 100
B26	< 100
B27	< 100
B28	< 100
B29	< 100
B30	< 100
B31	< 100
B32	< 100
B33	< 100
B34	< 100
B35	< 100
B36	< 100
B37	< 100
B38	< 100
B39	< 100
B40	< 100
B41	< 100
B42	< 100
B43	< 100
B44	< 100

Binder	IC50 [µM]
B45	< 100
B46	< 100
B47	< 100
B48	< 100
B49	< 100
B50	< 100
B51	< 100
B52	< 100
B53	< 100
B54	< 100
B55	< 100
B56	< 100
B57	< 100
B58	< 100
B59	< 100
B60	< 100
B61	< 100
B62	< 100
B63	< 100
B64	< 100
